These are literature values, as cited in PMC6522352.

In this data set the target is IL-9 (Mus musculus) (UniProt P15247).

pKd: −log10 of the molar value.

Chain of UniProt P15247 (P15247 19-144): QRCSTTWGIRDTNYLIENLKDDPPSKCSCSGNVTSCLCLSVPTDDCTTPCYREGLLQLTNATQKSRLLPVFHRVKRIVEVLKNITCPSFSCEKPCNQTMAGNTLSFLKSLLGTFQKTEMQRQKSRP

What is called pKd is the negative decadic logarithm of the Kd, by convention in mol/L. On to “IL-9 receptor alpha (from UniProt Q01114)”, for which the pKd is 10.00.
